Test system: MS2 coat protein
Assay: apparent KD of MS2 coat protein; designed switch direction (-1 OFF switch, 1 ON switch): -1; higher = weaker reporter binding
In short: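 Each step of the titration lasted 0.8–1.5 h at the lowest concentration and 10–20 min at the highest. The protein, SNAP-549-labelled MS2 coat protein, went from 0.7 or 1.5 nM doubling to 3 µM over RNA switches transcribed on Illumina chips by stalled E. coli RNA polymerase. Normalised cluster fluorescence was curve-fitted, and the per-design median over clusters is given as apparent KD.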

[1] = Eterna round: R95, input ligand: FMN 200 uM
[2] = Eterna round: R95, input ligand: microRNA oligo, concentration not stated
[3] = Eterna round: R95, input ligand: none
[4] = input ligand: microRNA oligo, concentration not stated

Sequence	apparent KD of MS2 coat protein [2]	apparent KD of MS2 coat protein (input ligand: FMN 200 uM)	apparent KD of MS2 coat protein (input ligand: none)	other results
AGUACUAACACGCAAGUGUUAGUACAAUAAGCUUGUGAAACAUGAGGAUCACCCAUGUCCUCAUAAGCUCGUCUUAU [salish99_TOv2_r3_027] (puzzle: Sensor v3, turn-off variant 2)	490 nM	–	–	apparent KD of MS2 coat protein [1]: 16.2 nM; apparent KD of MS2 coat protein [3]: 16.5 nM
GCUGCUAGAGGAUAUACAUGAGGAUCACCCAUGUGAAAUUAUAGUGAGGAAAUGAAAAGUAGAAGGCUAGUAGA [Mod of Mat 16 - Jieux - Exclusion 3] (Eterna round: R97, puzzle: Exclusion 3)	–	381 nM	36.2 nM	–
UUUUAACAUGAGGAUCACCCAUGUGAGGAUAUCGAAAUUUAUAUUAAUAUUAUUAUUACGAGAAGGCACAUUUU [JMF 42] (puzzle: Exclusion 1)	69.3 nM	–	–	–
AAAUUACAAGCAAGAUCCUACAUGAGGAUCACCCAUGUGCUCGUCUUAUAAAGUACUAUCACGAAAGUGAUAGUACA [Mat - Sensor v3 - turn-off var 1 - Eli Mod - D58] (puzzle: Sensor v3, turn-off variant 1)	304 nM	–	–	apparent KD of MS2 coat protein [1]: 256 nM; apparent KD of MS2 coat protein [3]: 329 nM
CCGGAAAUACAGGAUAUAGGAGUCAAUAGACUCCUAGAAGGGUAUACAUGAGGAUCACCCAUGUGUCCUACCGG [Fiskers Ex 6 - 66] (Eterna round: R96, puzzle: Exclusion 6)	–	39.9 nM	27.7 nM	apparent KD of MS2 coat protein [4]: 23.3 nM
GCCACCACAUGAGGAUCAAACAUGAGGAUCACCCAUGUAUAACAAGCUUUUUGCUCGUCUUAUAAAUAUGUGGUGGC [Electric Eye 4 - Jieux - Sensor, turn-off variant 1] (Eterna round: R97, puzzle: Sensor, turn-off variant 1)	–	14 nM	15.3 nM	–
CAUACACAUGAGGAUCACCCAUGUGAGGAUAUUCGCGCGCGCGCCCGGGCGCGCGCGCGGAGAAGGCACGUGCG [My first try] (Eterna round: R97, puzzle: Exclusion 1)	–	76.7 nM	51.2 nM	–
CGUCAAGCUUCGGCAGGCAACAUGAGGAUCACCCAUGUCUGCGUUCGUCUUAACUGAUCUAGGGAUAGAUCGUGUGU [Eternabot (L1) Solution 49] (Eterna round: R97, puzzle: Sensor, turn-off variant 1)	–	18.3 nM	15.4 nM	–
CUAGCGAAUGUAGGAUAUCGGACUGUUUCAGUCUGAGAAGGACAUGAGGAUCACCCAUGUGAAGCUACGUGAGUAGCACGCUAG [JL ENG1 3.86] (Eterna round: R96, puzzle: Exclusion NG 1)	–	111 nM	23.2 nM	apparent KD of MS2 coat protein [4]: 18.7 nM
CACCGUUAAAGAGGAUAUCGUACAUGAGGAUCACCCAUGUAAUAAAUGAGAAUUUCGGAUGUAUGCGAGAAGGCUUAAAUCGGC [Ostracism 47 - Jieux - Exclusion NG 2] (Eterna round: R96, puzzle: Exclusion NG 2)	–	–	–	apparent KD of MS2 coat protein [4]: 39.5 nM
AAUAACGAGCCGAUCCUCCACAUGAGGAUCACCCAUGUGUUCGUCUUGUAAAGUACUAUCACGAAAGUGAUAGUACA [mod jandersonlee] (Eterna round: R97, puzzle: Sensor, turn-off variant 1)	–	1100 nM	1040 nM	–
GCUGGGUCAGGAUAUACAAGAUCGAAAGAUCUGUGAAACGAACAUGAGGAUCACCCAUGUAGAAGGGACUGGGC [ChP 11-04-2015 #9] (puzzle: Exclusion 2)	16.6 nM	–	–	–
UUCAGACAUGAGGAUCACCCAUGUGAGGAUAUGAUGCAGCAGUGGUCUACGCUGUGCAUCAGAAGGCACAUGUG (puzzle: Exclusion 1)	99.6 nM	–	–	–
AGAGUGCUGCGAGGAUAUACAUGAGGAUCACCCAUGUUUUCCUGUGAGGCUUUGCCUCACAGGAUGUAGAAGGCGCAGUACUCA [Mat - Exclusion NG 2 - Mod of JL - D38] (Eterna round: R96, puzzle: Exclusion NG 2)	–	9.32 nM	13.1 nM	apparent KD of MS2 coat protein [4]: 9.65 nM
CCUCGACAUGAGGAUCACCCAUGUCAGGAUAUUGUGUUUUGGGUUUUUUACCUUUAGGCAAGAAGGGAUGUGUG [LRO-Excl1-17] (puzzle: Exclusion 1)	16.1 nM	–	–	–
AAGAGGCUAGGAUAUACAUGAGGAUCACCCAUGUGAGGGCACGGCCGGCGCGUGGCCGGUAGAAGGAGUCAAAA [Exc;s3-VIII] (puzzle: Exclusion 3)	17.5 nM	–	–	–
AUUUAGAGAGGAUAUAUAUUGUGAAACAUGAGGAUCACCCAUGUAAUAAUAUGGAUGUAAAUAGAAGGCUCAUUUA [Mat - Exclusion 5 - JL mod - D9] (puzzle: Exclusion 5)	41.3 nM	–	–	–
CAAAAGGUAGGAUAUUAUGCCUGUAACAUGAGGAUCACCCAUGUGGUCCGAGACGGAGUUUAAGAAGGACCGAAAA [Masomariat] (puzzle: Exclusion 5)	169 nM	–	–	apparent KD of MS2 coat protein [1]: 895 nM; apparent KD of MS2 coat protein [3]: 190 nM
AAUAAGCUAGGAUAUACAUGAGGAUCACCCAUGUCCACGCUCUGGAGGGCUGAAUGAUGUAGAAGGAGCAGUGG [Zabier] (puzzle: Exclusion 3)	19.2 nM	–	–	apparent KD of MS2 coat protein [1]: 17.2 nM; apparent KD of MS2 coat protein [3]: 13.9 nM
ACAUGAGGAUCACCCAUGUAAUCAUGAUGGCUGAUGUAGACUCAGGAUAUGUGUGGCUUUCUAUCACAGAAGGGAGAAGACUGG [Deportation 37 - Jieux - Exclusion NG 3] (Eterna round: R96, puzzle: Exclusion NG 3)	–	59.7 nM	129 nM	apparent KD of MS2 coat protein [4]: 116 nM
UUGUUGUAUGUAGGAUAUGCGUAUUAUUAUUGGGCAGAAGGACAUGAGGAUCACCCAUGUAUGUUGUUGUUAUAUAUUAUAUAU [Title] (Eterna round: R96, puzzle: Exclusion NG 1)	–	66.4 nM	47.8 nM	apparent KD of MS2 coat protein [4]: 35.8 nM
GAAUUCCGAGGAUAUUCGGAACCAGACAUGAGGAUCACCCAUGUGAUGCAGUUUCCGUUCGAAGAAGGUGGAACGC [Eternabot (Original) Solution 28] (Eterna round: R97, puzzle: Exclusion 5)	–	22.5 nM	23.3 nM	–
GAGGAGCAAGGAUAUACGAGGAUAUGGAAGGUUGGAGAGUGACAUGAGGAUCACCCAUGUAGAAGGUGCAAGGG [JR_Exclu2_Sub096] (puzzle: Exclusion 2)	91.8 nM	–	–	apparent KD of MS2 coat protein [1]: 65.9 nM; apparent KD of MS2 coat protein [3]: 131 nM
UUUUUCUGUGUGAGGAUAUACUUUGUUUGGUCGUUGUAGAAGGCACAUGAGGAUCACCCAUGUAGUUUGUUGUG [JR_BME4_Sub013] (puzzle: Brourd's mod of Exclusion 4)	23 nM	–	–	–
ACAAGCUUUUAGAUUUUCAACAUGAGGAUCACCCAUGUUCGUCUUAUGCUAGUGCUAGUGCGGUGUACUGGUAUUGG [JL TOV1 3.79 sellena mod] (Eterna round: R97, puzzle: Sensor, turn-off variant 1)	–	19.2 nM	19.5 nM	–
ACAUUACAUGAGGAUCACCCAUGUGAGGAUAUGGAGCGAGACUGUCCUGUCGCGUACACCAGAAGGCGCGGGUG [1st #51] (Eterna round: R97, puzzle: Exclusion 1)	–	115 nM	131 nM	–
